This experiment concerns the target ATG3 (human, recombinant) (human, UniProt Q9NT62 1-314). Briefly: ITC. Background: In ITC the heat of successive injections is recorded.

What is called Kd is the concentration at which binding is half-saturated.

ATG3 (human, recombinant), sequence (Q9NT62 whole entry): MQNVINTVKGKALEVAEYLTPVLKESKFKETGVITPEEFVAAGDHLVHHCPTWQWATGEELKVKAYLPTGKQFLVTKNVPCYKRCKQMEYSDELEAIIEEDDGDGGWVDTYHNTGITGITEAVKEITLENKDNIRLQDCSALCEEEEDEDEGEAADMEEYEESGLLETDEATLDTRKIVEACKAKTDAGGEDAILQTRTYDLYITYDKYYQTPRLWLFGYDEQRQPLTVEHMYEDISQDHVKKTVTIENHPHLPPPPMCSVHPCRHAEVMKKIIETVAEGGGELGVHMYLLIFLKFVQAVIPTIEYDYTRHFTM

B1: unconjugated ATG12 (human, recombinant) (natural protein, UniProt O94817 1-140, looked up)
chain: MAEEPQSVLQLPTSIAAGGEGLTDVSPETTTPEPPSSAAVSPGTEEPAGDTKKKIDILLKAVGDTPIMKTKKWAVERTRTIQGLIDFIKKFLKLVASEQLFIYVNQSFAPSPDQEVGTLYECFGSDGKLVLHYCKSQAWG
B1: the Kd turned out to be 117 nM.

The values are drawn from paper PMC3540207 (Nature structural & molecular biology, 2012).
